Data taken from the RNAGym collection of RNA variant scans (doi:10.7554/elife.80360).

B1: HDV Ribozyme (parent)
chain: GGCCGGCAUGGUCCCAGCCUCCUCGCUGGCGCCGGCUGGGCAACAUUCCGAGGGGACCGUCCCCUCGGUAAUGGCGAAUGGGACCCA

Variants of: B1
Assay: self-cleavage, relative activity (ratio to wild type); higher = more cleavage; co-transcriptional

Compared with U9C A45G, G10A A78U is lower in self-cleavage: 0.95 for the first, 0.0382 for the second.

Compared with G10A A78C, U9A G28C is lower in self-cleavage: 0.113 for the first, 0 for the second.

First: U9A G28U
Second: U9C C62G
The self-cleavage of the first is lower: 0.0898 for the first, 0.166 for the second.

Compared with U9C U27C, U9C U27A is higher in self-cleavage: 0.554 for the first, 0.935 for the second.

Going from U9G U65C to U9G U65A, the self-cleavage rises from 1.17 to 1.27.

First: U9G C18U
Second: U9G C18G
The self-cleavage of the first is higher: 0.504 for the first, 0 for the second.

Compared with U9G C18A, U9C G25C is lower in self-cleavage: 0.0923 for the first, 0.0615 for the second.

Going from U9C G25A to U9G C15A, the self-cleavage rises from 0.277 to 1.21.

Compared with U9G C15U, U9G C86A is lower in self-cleavage: 0.962 for the first, 0.959 for the second.

First: U9G C26G
Second: U9A U47C
The self-cleavage of the first is lower: 0.88 for the first, 0.997 for the second.

U9C U20C and U9C U20A are the same in self-cleavage: 0 for the first, 0 for the second.

Compared with U9A U46A, U9G G35U is lower in self-cleavage: 0.743 for the first, 0.653 for the second.

First: U9G G35A
Second: U9C G50U
The self-cleavage of the first is lower: 0.782 for the first, 1.02 for the second.

First: U9C G50C
Second: U9C C41U
The self-cleavage of the first is lower: 0.886 for the first, 1.05 for the second.

First: U9C A87C
Second: U9G C33G
The self-cleavage of the first is higher: 0.813 for the first, 0.104 for the second.

First: U9G C33A
Second: U9G C44U
The self-cleavage of the first is lower: 0.293 for the first, 0.443 for the second.

First: U9C A42G
Second: U9C A42C
The self-cleavage of the first is higher: 0.886 for the first, 0.475 for the second.

Going from G10A A43C to U9C U69A, the self-cleavage rises from 0.176 to 1.02.

First: U9C U69C
Second: U9C U69G
The self-cleavage of the first is lower: 0.969 for the first, 1.22 for the second.

Going from G10A A87U to U9A G52A, the self-cleavage rises from 0.779 to 0.99.

First: U9G G67U
Second: U9C G52C
The self-cleavage of the first is higher: 1.25 for the first, 1.02 for the second.

Compared with U9G G53C, U9G C48U is higher in self-cleavage: 0.939 for the first, 1.05 for the second.

Going from U9C C15U to U9C C15A, the self-cleavage falls from 0.776 to 0.748.

First: U9C A16C
Second: U9C A16U
The self-cleavage of the first is lower: 0.519 for the first, 1.08 for the second.

Compared with U9G G31C, U9G G25C is lower in self-cleavage: 0.378 for the first, 0 for the second.

Going from U9G G54U to U9C A83G, the self-cleavage falls from 0.831 to 0.665.

Going from U9C A83U to U9C U46A, the self-cleavage rises from 0.525 to 1.06.

U9G U12A and U9G U12G are the same in self-cleavage: 1.11 for the first, 1.11 for the second.

Going from U9G G80U to U9G G80A, the self-cleavage rises from 0.289 to 0.516.

Compared with U9A U60A, U9G C61G is higher in self-cleavage: 0.923 for the first, 1.02 for the second.

Compared with U9C C61U, U9C C61A is higher in self-cleavage: 0.81 for the first, 1.03 for the second.

First: U9C G82U
Second: U9C C86G
The self-cleavage of the first is lower: 0.201 for the first, 1.14 for the second.

Going from U9C C86U to U9G A45U, the self-cleavage falls from 1.35 to 0.692.

Going from U9G A45G to G10A C26U, the self-cleavage rises from 0.684 to 0.874.

First: U9C U60G
Second: U9A G53U
The self-cleavage of the first is lower: 0.723 for the first, 1.28 for the second.

First: U9A G53A
Second: U9C A56U
The self-cleavage of the first is higher: 1.2 for the first, 1.04 for the second.

Compared with U9C A56G, U9G U37A is lower in self-cleavage: 0.935 for the first, 0 for the second.

Going from U9A U65G to U9A U65A, the self-cleavage falls from 1.11 to 1.05.

First: U9G A87U
Second: U9G U46G
The self-cleavage of the first is higher: 0.853 for the first, 0.646 for the second.

Compared with U9G U46A, G10A A83G is lower in self-cleavage: 0.312 for the first, 0.258 for the second.

Going from U9C C21G to U9C C21A, the self-cleavage falls from 0.277 to 0.0639.

First: U9C C21U
Second: U9A G54C
The self-cleavage of the first is lower: 0.214 for the first, 0.935 for the second.

Going from U9A G54U to U9C A77C, the self-cleavage falls from 1.06 to 0.364.

Compared with U9C C58U, U9C C58A is higher in self-cleavage: 0.886 for the first, 1.11 for the second.

First: U9G C66G
Second: U9G C66U
The self-cleavage of the first is higher: 1.19 for the first, 0.727 for the second.

Going from G10A C33A to G10A C33U, the self-cleavage rises from 0.111 to 0.554.

Compared with G10A C33G, U9C U79G is higher in self-cleavage: 0.0767 for the first, 0.519 for the second.

Going from U9C G80U to U9C G80C, the self-cleavage rises from 0.193 to 0.256.

First: U9C G80A
Second: U9C G53U
The self-cleavage of the first is lower: 0.277 for the first, 1.26 for the second.

Compared with U9C G53A, U9C U65G is higher in self-cleavage: 1.01 for the first, 1.37 for the second.

Going from U9C U65A to U9C U65C, the self-cleavage falls from 1.25 to 1.22.

Compared with G10A C30A, G10A C30U is higher in self-cleavage: 0.0913 for the first, 0.248 for the second.

Going from U9G G50C to G10A A42C, the self-cleavage falls from 1.01 to 0.0875.

Compared with G10A A42G, G10A A42U is lower in self-cleavage: 0.251 for the first, 0.244 for the second.

Going from U9C G28C to U9C G28U, the self-cleavage rises from 0.0573 to 0.123.

First: U9G C21G
Second: U9G G34C
The self-cleavage of the first is lower: 0 for the first, 0.175 for the second.

Going from U9C C75U to U9C C75A, the self-cleavage falls from 0.138 to 0.115.

Compared with U9A U12G, U9G C63U is higher in self-cleavage: 1.06 for the first, 1.07 for the second.

First: U9G C64G
Second: U9G C84G
The self-cleavage of the first is higher: 0.831 for the first, 0.222 for the second.

First: U9A G17C
Second: U9A G17U
The self-cleavage of the first is lower: 0.297 for the first, 0.383 for the second.

Going from U9C G11C to U9C G11U, the self-cleavage rises from 0.266 to 0.383.

Going from U9G G59U to U9G G59A, the self-cleavage rises from 1.06 to 1.16.

Compared with U9C G68A, U9C G68U is lower in self-cleavage: 1.17 for the first, 0.655 for the second.

First: U9C U47C
Second: U9C U47G
The self-cleavage of the first is lower: 0.969 for the first, 1.42 for the second.

Going from U9G C24A to U9G C24U, the self-cleavage rises from 0.525 to 0.767.

Compared with U9G C13U, U9C A70C is lower in self-cleavage: 1.07 for the first, 0.997 for the second.

First: G10A A77G
Second: U9C A78G
The self-cleavage of the first is lower: 0.53 for the first, 0.914 for the second.

First: U9C A78U
Second: U9A G39A
The self-cleavage of the first is lower: 0.185 for the first, 0.665 for the second.

Compared with U9A G40U, U9A G40A is higher in self-cleavage: 0.897 for the first, 1.02 for the second.

Compared with U9G U20A, U9G G52U is higher in self-cleavage: 0 for the first, 1.03 for the second.

Going from U9A G82U to U9A G82A, the self-cleavage rises from 0.375 to 0.425.

Going from U9G A16G to U9G A16C, the self-cleavage falls from 1.42 to 0.712.

Going from U9G U47C to U9A G34U, the self-cleavage falls from 1.04 to 0.374.

Going from U9G C57A to U9G C57G, the self-cleavage rises from 0.831 to 1.19.

Compared with U9C C48U, U9C C48G is higher in self-cleavage: 0.748 for the first, 1.44 for the second.

First: U9G C49U
Second: U9G C49A
The self-cleavage of the first is lower: 0.776 for the first, 1.11 for the second.

First: G10A A45G
Second: G10A A45U
The self-cleavage of the first is higher: 0.598 for the first, 0.534 for the second.

First: G10A A45C
Second: U9C A43U
The self-cleavage of the first is lower: 0.219 for the first, 0.378 for the second.

Compared with U9C A43C, U9A G31U is lower in self-cleavage: 0.378 for the first, 0.208 for the second.

Compared with U9A G31A, U9G C75U is lower in self-cleavage: 0.554 for the first, 0.222 for the second.

Compared with U9A G68A, U9A G68U is higher in self-cleavage: 0.955 for the first, 1.08 for the second.

Compared with U9A G68C, G10A C19A is lower in self-cleavage: 1.16 for the first, 0.0489 for the second.

Compared with G10A C19G, G10A is higher in self-cleavage: 0.111 for the first, 0.779 for the second.

U9C C33U showed a self-cleavage of 0.895.
